Source: article PMC6600415

Biological target: low-density lipoprotein receptor-related protein 6 (LRP6), O75581

B1: LysRS-DKK2-Fc fusion protein, Q9UBU2 34-259 (Fc fusion)
chain: KLNSIKSSLGGETPGQAANRSAGMYQGLAFGGSKKGKNLGQAYPCSSDKECEVGRYCHSPHQGSSACMVCRRKKKRCHRDGMCCPSTRCNNGICIPVTESILTPHIPALDGTRHRDRNHGHYSNHDLGWQNLGRPHTKMSHIKGHEGDPCLRSSDCIEGFCCARHFWTKICKPVLHQGEVCTKQRKKGSHGLEIFQRCDCAKGLSCKVWKDATYSSKARLHVCQKI
B1 showed a TOPflash luciferase reporter activity in HEK 293T cells, percent inhibition, two concentrations up to 500 ng/mL (4.2 nM) of 47%.

B2: TEV-cleaved LysRS-DKK2-Fc (DKK2-Fc released by TEV protease), Q9UBU2 34-259 (Fc fusion)
chain: B1 chain
Binder B2 has a TOPflash luciferase reporter activity in HEK 293T cells, percent inhibition; TEV-cleaved LysRS-DKK2-Fc (2): mixed with TEV protease and immediately added to cells of 18%.
